For orientation: Kd means the free concentration of one partner at which half of the binding sites on the other are occupied at equilibrium, for simple one-to-one binding. The koff is a measure of how fast the partners let go of each other. High values mean fast dissociation, low ones slow dissociation. For orientation: kon means the rate constant with which the complex forms.

Experiment [1] addresses T1, mouse IL-11Rα (Il11ra1) (mouse, UniProt Q64385 24-372, limits assumed).
T1 construct: also called mouse Il11ra1
T1 sequence (looked up): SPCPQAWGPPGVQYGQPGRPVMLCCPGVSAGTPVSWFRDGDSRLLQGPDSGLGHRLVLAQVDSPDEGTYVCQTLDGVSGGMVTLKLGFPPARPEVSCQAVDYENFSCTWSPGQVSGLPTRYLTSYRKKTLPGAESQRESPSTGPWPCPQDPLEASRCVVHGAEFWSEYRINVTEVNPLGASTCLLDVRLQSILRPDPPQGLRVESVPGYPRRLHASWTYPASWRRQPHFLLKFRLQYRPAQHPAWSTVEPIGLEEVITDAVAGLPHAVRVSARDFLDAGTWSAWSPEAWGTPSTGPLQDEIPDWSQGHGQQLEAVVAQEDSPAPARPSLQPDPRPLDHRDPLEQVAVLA
Briefly: BLI, Octet (ForteBio).

For experiment [2], the target named is T2, human IL11RA (analyte in the Biacore assay) (human, UniProt Q14626 23-370, limits assumed).
T2 construct: also called IL-11Rα
T2 sequence: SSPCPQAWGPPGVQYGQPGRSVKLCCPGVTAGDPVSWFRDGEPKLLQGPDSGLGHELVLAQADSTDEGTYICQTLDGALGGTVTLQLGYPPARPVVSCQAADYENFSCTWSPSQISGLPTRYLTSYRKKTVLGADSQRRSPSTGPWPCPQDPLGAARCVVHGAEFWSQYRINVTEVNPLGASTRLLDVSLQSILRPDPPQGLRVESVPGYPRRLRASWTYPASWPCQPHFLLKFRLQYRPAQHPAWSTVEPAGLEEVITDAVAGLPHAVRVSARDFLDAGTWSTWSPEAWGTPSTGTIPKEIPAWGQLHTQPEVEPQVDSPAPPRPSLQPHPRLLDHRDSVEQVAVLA
Briefly: SPR, Biacore T200; X209 captured on an anti-mouse chip, human IL11RA as analyte (1.56 nM to 100 nM), 1:1 Langmuir fit. On the procedure: (§1) Binding of X209 to human IL11RA was measured on Biacore T200 (GE Healthcare). X209 was immobilized onto an anti-mouse capture chip. Interaction assays were performed with HEPES-buffered saline pH 7.4 containing 0.005% P20 and 0.5% BSA. A concentration range (1.56 nM to 100 nM) of the analyte (human IL11 RA) was injected over X209 and reference surfaces at a flow rate of 40 μl min⁻¹. Binding to mouse 1111ra1 was confirmed on Octet system (ForteBio) using a similar strategy. All sensograms were aligned and double-referenced⁴. Affinity and kinetic constants were determined by fitting the corrected sensorgrams with 1:1 Langmuir model. The equilibrium binding constant KD was determined by the ratio of kd/kₐ.

For experiment [3], the target named is T2, human IL11RA (analyte in the Biacore …). Briefly: SPR (Biacore T200): X209 captured on an anti-mouse capture chip, human IL11RA injected as analyte at 1.56 nM to 100 nM, 1:1 Langmuir fit. On the procedure:
as §1
For orientation: Surface plasmon resonance follows binding to a sensor surface in real time, without labels.

B1: mouse anti-mouse IL-11Rα IgG X209 (antibody, V domains shown)
VH: QVQLQQPGAELVRPGSSVKLSCKASGYTFTNYWMHWLKQRPVQGLEWIGNIGPSDSKTHYNQKFKDKATLTVDKSSSTAYMQLNSLTSEDSAVYYCARGDYVLFTYWGQGTLVTVSA
VL: DIVLTQSPATLSLSPGERATLSCRASQSISNNLHWYQQKSHEAPRLLIKYASQSISGIPARFSGSGSGTDFTLSFSSLETEDFAVYFCQQSYSWPLTFGQGTKLEIK
notes: also called Enx209; neutralizing anti-IL11RA
As to B1, the binding result in experiment [1] is recorded as “binds”. Further, the Kd in experiment [2] came out at 6 nM. Further, in experiment [3], binding was characterised by a dissociation constant (Kd) of 6.01 nM, the koff stood at 0.000757 s⁻¹ and the kon was 126000 M⁻¹ s⁻¹.

The values above are taken from patent publication US20200384083A1 (SINGAPORE HEALTH SERVICES PTE, published 2020).
